Laboratory results from publication PMC11870197.

T1: 6xHis-PhoP (Lacticaseibacillus paracasei BL23, UniProt Q03AN9 1-235)
T1 sequence: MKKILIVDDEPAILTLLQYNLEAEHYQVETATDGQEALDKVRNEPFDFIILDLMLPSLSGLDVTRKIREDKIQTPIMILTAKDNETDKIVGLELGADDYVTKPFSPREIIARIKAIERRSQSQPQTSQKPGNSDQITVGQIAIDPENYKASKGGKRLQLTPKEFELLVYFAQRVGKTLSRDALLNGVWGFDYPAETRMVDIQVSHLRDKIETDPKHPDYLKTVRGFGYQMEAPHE

T2: 6xHis-PhoP~P (Lacticaseibacillus paracasei BL23, UniProt Q03AN9 1-235)
T2 sequence: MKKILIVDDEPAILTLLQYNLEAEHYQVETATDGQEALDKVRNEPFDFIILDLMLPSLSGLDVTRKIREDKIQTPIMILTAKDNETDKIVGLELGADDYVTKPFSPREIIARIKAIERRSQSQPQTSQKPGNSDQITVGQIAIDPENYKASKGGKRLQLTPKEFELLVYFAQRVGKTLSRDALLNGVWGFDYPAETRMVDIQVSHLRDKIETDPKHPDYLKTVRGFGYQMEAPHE

B1: ackA promoter fragment (dsDNA)
DNA 1: GATTCGCCGAAAACCAAGAAAAAGTCATGATGCTGTGCGATTACGTGTGCGGCAATCCGACTACCCGTTTAGAGGAGGAAAAAAACAATGGCAAAAATTCTCGCAGTCAACGCAGGCAGTTC
DNA 2: GAACTGCCTGCGTTGACTGCGAGAATTTTTGCCATTGTTTTTTTCCTCCTCTAAACGGGTAGTCGGATTGCCGCACACGTAATCGCACAGCATCATGACTTTTTCTTGGTTTTCGGCGAATC
B2: poxL promoter fragment (dsDNA)
DNA 1: TTGATCCATGATCCTGATCATCATTAAGTTAATTTGTGAAAAAGGTTTACCAAGCATGTTATGGCGTGGTGATGCTGTATTAGTTCACTTGTTTGACTGTTATGGTGTCGTCG
DNA 2: CGACGACACCATAACAGTCAAACAAGTGAACTAATACAGCATCACCACGCCATAACATGCTTGGTAAACCTTTTTCACAAATTAACTTAATGATGATCAGGATCATGGATCAA
B3: glnA promoter fragment (dsDNA)
DNA 1: TGCCAAATTAGTGACGCTATTTGCAAATTCCCCCGCGACAATTTTTAGACAATCTTTCCTTTTATTTAAAATCATGTAACATTAGGGCCGAACGATACATATGTAACGGTGTTTTTTAACC
DNA 2: GGTTAAAAAACACCGTTACATATGTATCGTTCGGCCCTAATGTTACATGATTTTAAATAAAAGGAAAGATTGTCTAAAAATTGTCGCGGGGGAATTTGCAAATAGCGTCACTAATTTGGCA

How the values were obtained:
Assay in all cases: EMSA
[1] = target: T1, 6xHis-PhoP
[2] = target: T2, 6xHis-PhoP~P
[3] = target: T2, 6xHis-PhoP~P; remark: listed apart in the source

Binder	binding result [1]	binding result [2]	binding signal [3]
B1	no binding	no binding	
B2	no binding	no binding	
B3			~10 fold more PhoP required than for pstS or phnD
